From the DeepSol protein solubility set

test: soluble on expression in E. coli; label from the status in PepcDB or PDB records

Row | Sequence | soluble on expression in E. coli
1 | MTDHSNTRVVVGMSGGVDSSVVALLLKQQGYDVVGVFMKNWDDTDENGVCTATEDYKDVAKVADKIGIPYYSINFEKEYWDRVFTYFLDEYKKGRTPNPDVICNKEIKFKAFLDYAMDLGADYIATGHYARLQHDEDGTMHLLRGVDSNKDQTYFLSQLDSKTLQKVMFPLGEMVKPDVRKLALNAGLATAKKKDSVGICFIGEKNFKEFLGHYLPATPGKMMTFDGQVKGEHAGLMYYTIGQRRGLGIGGDGEDNEPWFVVGKDLKKNILYVGKGYHNPHLYATHLKASDLHFVTDEDLGNDFHVTAKFRYRQKDSGVTVHFNDDHTEVTVTFDDPVRAITPGQAVVFYNGEECLGSGMIDAAYNDERVLQYVLEHHHHHH | not soluble
2 | MSRTMAEVNRLLKKTAGLINKDTESPFQGEFRVGVDLGTADIQTIVLDADGNPLAGFMDWANVVRDGVVVDFFGASQIVREQVRRASAKLGIQIEQVTTSFPPGTDSRISTNVIEAAGLEVAGVIDEPSSVAQLLQLDHAAVVDIGGGTTGTAIIEEGRVVRSMDDATGGRHITLTLAGHFGLPYEEAEEMKRTSKDLALCRLAAPVIAKMADIVHGHIAGHKVPAIYLTGGSCALPGFLEVFAAEFPGIEIVMPSHPLYLTPLAIATYSDVLQTREQRVGLEHHHHHH | not soluble
3 | GDSQDFSSSQSTSPVVHHRPIDQIALSTFEDTTPLKTDEVEQAWEHTQITYVDLRTGAHLGSGAERLARASLSLSKLYIADYVFDHGTQKEKEQAVEMIRKSDDDIADKLFDAYPNCIDSVAKKYQLEATQTYGRWG | not soluble
4 | MAALASSLIRQKREVREPGGSRPVSAQRRVCPRGTKSLCQKQLLILLSKVRLCGGRPARPDRGPEPQLKGIVTKLFCRQGFYLQANPDGSIQGTPEDTSSFTHFNLIPVGLRVVTIQSAKLGHYMAMNAEGLLYSSPHFTAECRFKECVFENYYVLYASALYRQRRSGRAWYLGLDKEGQVMKGNRVKKTKAAAHFLPKLLEVAMYQEPSLHSVPEASPSSPPAPLEHHHHHH | not soluble
5 | AALSNLSIRTTAHRFMEEMSMYAQAPVALAARDRLNMLYLDVVQTNSTMRRPIGSTLPLHNSSMGRACLAATPKQERYFLLEAIQKREPENWIEIKEKLDIAFDQYAEYGYCLSLGEWQQGINSVAVPLMSTKHGLYVFNCGAPSYALSTEKLIEDIGPRLKYMVNSIQDALTESL | not soluble
6 | MEKKKVTIPQVCHGHSRPVVDLFYSPITPDGFFLISASKDSHPMLRNGETGDWIGTFEGHKGAVWSSCLDNNALRAASASADFSAKLWDALTGDVLHSFEHKHIVRACAFSEDTKSLLTGGFEKILRVFDMNRLDAPPTEVDKSPGSIRTLTWLHSDQTILSSCTDIGGVRLWDVRSGKIVQTLETKSPVTSAEVSQDGRYITTADGSTVKFWDANHFGLVKSYDMPCNIESASLEPKSGEKFVAGGEDMWVRVFDFYTGEEIGCNKGHHGPVHCVRFTPTGLSYASGSEDGTIRIWQTTPANPEENETSSRRVKHSVDEVSKKIEGFHINKEGKTAEKPSDT | soluble
7 | MGSDKIHHHHHHMSLDNHYDVDAALDKALKDDFLRKATRRATDRLRNNKLAITEELGNWEEWRQVGERIRNHVVENLDYYLDMLIENVEKNGGHVHLAKTPEDGVRIVQEIFQKHGFKSVIKSKSMITEEIHLNPVLEKDGIEVVETDLAEYIIQIADEPPSHIIVPAMHKTREQIAKLFEPIAGHPLESDTPTLTKFAREQLREKFLTSKIGITGCNFAVADTGTITMVTNEGNGRLTSTMPEVQITMMGMERIVPSYKELSVLLNLLARSATGQRLSVYTTMITPPKREGDIDGPKEWHLVILDHNRSEILGDEDFRSSLRCIRCGACFNVCPVYRQVGGHAYGSVYSGPIGVVITPLLEQNYEKWGHLPYYSSLCAACSEACPVRIPLQDLIVKHRDRKVLKGYTSGVEKKIFKYYGYYFSHPKTLSKFVRLGSKFQFILMRNGRIASGPPPLSNWTNSKTLPPVAKQMFRDQWPELEKKLKTMQRGDQ | not soluble
8 | MKPLAQLLLFLLQFQKGNLVSQSSSTPLMVNGVLGESVTLPLEFPAGERIQFITWLCNGTSFAFLEPYEGKSPKIYVTHPKWQKRLSFTQSYSPQLSNLEMENIGFYSAQIATETSAKLSSYTLRIFKQLPRPQVRVDSIISENGICNAILRCSVEEGGETITYEWTSMGPGAAVSHVGSVLYGSWSLHDLDWIYTCTALNPVSYSNSTLTLAAQLCASSKAAEGTYCPVKWIFLGNRLLLLVFLGVLRTWHIQAQVLSKPLRPNSG | not soluble
9 | MYARYAGLIFDMDGTLLDTEPTHRKAWREVLGRYGLRFDEQAMVALNGSPTWLIAQSIIELNHADLDPLSLAREKTDAVKSILLDCVEPLPLVEVVKAWHGRRPMSVGTGSESAIAEALLAHLGLRRYFDAVVAADHVQHHKPAPDTFLLCAQRMGVMPTQCVVFEDADFGLQAARAAGMDAVDVRLL | not soluble
10 | MNSRMSKLRRSISRSVFQLNSSLSRQNSLNGLVDLPTMSNTTLVDKFATPSNFRQLRDLIRNNNELLAEVVTAFEEKAALDFHYSKTLKKISIRLHKLTQSVESGIDKGWTNVAEQFDIHATIHSNLGSAITEDIIQPLRSIQSNQQKTIRAADNFVEREIRKLKDKKDETQKMKRSLYVLAKELEKTENSAEREKAQPEKFALRRKKYKDQMIRSEDDYVWQTVDLEKQRRMTENVLRKGVESMESVERQRLAHCQTALGRYKRKIETLGPNLRQMFERHSNNLELAVDSVPEDYIQTIQPSTSAVNHITLIDLHAENFGEVMSSTRRRQNLERVSGVLDSELKRLYNNQTADVMVSNSKQISVLEFIEYLYYKLNDSINIVDGGQNRGFHRLSRFQHKIKDKSGLPMTILTIPLSGDNNSLPPPCLSMEASTAYPSPRGSGEYEEYEKISDDGFYSTTTTSSNGGPIRTTTTFDEPTSSPPTICRVLYDFEPKHADEIEIREGQCVLVEDRIGDDWLIGHVISQHDNSSIDPRSGRFPTTYVSLRQ | not soluble
11 | MSLSSPRIIATYHLASDADLVAERAKGLAIEQSVECPLAAVGDPVILDTIVGRVEDIAELTPGRYAVRIGLAAATAPAEPGQLINMLFGNSSMQQDVTLVDVELPPSYLAAFGGPRLGLAGLRALTGTQDRALTASALKPQGLSPAALARIAGQLARGGVDVIKDDHGIADQAYSPFAARVEAVGRAVQEANVARDGHSLYAPNLSGTLDDMRRQLDLAREQGIAAVMVAPMIVGLANFHAVVKAAAGMVVIAHPALSGVTRIAPPLLLGKLFRLFGADATIFPNAGGRFGFSTETCLQLARAGRDPWGALEPCMPVPAGGLTADRVAELLQFYGHDVMLLIGGGLLSARERLTEEAARFVNEVAAHGKAEGHHHHHH | soluble
12 | MIFCTVGSGIEGYEQSFSKISVEGYDTSVHEFPLKLALAKHFASCGKIVDIDVPRDFKKRILKSPLFIIFHAKEGESPVDKALELSGTDVGGWNVVVKSLPGQQMYRDPGGVDRFKGERTLIVKVYDTPSTLSKIDLQIGLCKHFSSCGEVTGISVLVHGNLCCHESKARVDIMGKGCVDKALELSGRTADGWKIVVYFVVPPAGRKLKPTGSGHPTIGVERMKKAELKKKAKMEMMDKGKKKRKTTE | not soluble
13 | MSLRQRLTRRDPVSRLPNREQFQSDLYDLADENPGERRVLVLVDAVDMTVAHELTLAMGLAPFETIVRFLAQQLLAYLGRHVRVYHVSVKRFGFLLPAAPGIERFLESLVRRLRRQPPGLELPMIPGVCAGTVEFSTDRDAVPDVLRKAMFALELATLNRSTWAPYDVVRDQAYRRAFNLASDISEALDSGQIYLMFQPRFALPDGAQVSAEALIRWDHPWLGPISPAEFIPVMERNALIHRVTHWVINAVLGKLQAWSDGEVQRLSINLSPQDFEDQDIADVLKAACRRHGIEPHRLEVEITEGAWLRSNPRVLDQLSKIRALGMDVAIDDFGTGYSNFAYLHQIPANVVKLDKSMVTDLESSAQHQKITRSVIALARELGYRTVAEGIESFKCLQMLRTFGCDEAQGYFLARPMVQEKFLARSAAQRFPLQEGHHHHHH | soluble
14 | MTDNSQFHAASALVQAAHTVSVVGHLRPDADAIGSVAATVAALQQLGKDAVGAIGQLDSMPENLYTIPGASNIKFGDSLPESDLIIVVDCGSIERTGAFESIIVNNPDKVLVVDHHATNPGFGAVNLIDVEAESTTTILYDWFDAMSVQITPDIAHGLYAGLLTDTGCFRWGRPVMHDMAKELMEFGLDIRAISSALLDQTSVDDLRLVGQIVSRIELREAGPYTLAVLVADFDTINGRSRAVVEGLIEMVRAVEGADFGAVFKEYERGVYTVSLRSSNLSVASLAVHLGGGGHIPAAGYTARGTEIEALDTLIEATVTLGESLRSSAHVDVLEHHHHHH | soluble
15 | MAYITYQQYLDLYGTCPISEEEFPVYAGLASDMIDSITRYRIVEGGGISALPSILQTLVQKAAAAQVLYFTQIGLETVLTGQAGQSFTVGKVSVSGGALSSTTTKPGALMVSPFALSLLEQTPLMERGVHVCSDRFLNPFWGILEHHHHHH | soluble
16 | MGSDKIHHHHHHMRDRTVEIMWQAIDALDFSRIKAKLSHQKQVQWTPESLESAEAGYRQFLKMAAKYPGVPAVPSEQVDAFWHAHILDTRRYASDCVNIFGHVLHHDPYVGIDGPEDEARLFEMAAQSDVLSMREFGSPLTSASYFAQAAADEPAYCAREATAAEPAYCARMAKGPSYCARMGKALEPAYCAREATANEVVKRDHAAGGQAAYCALTLSQPASC | not soluble
17 | MSLGKATGFLEFGRELPKKIDPAERIKNNKEFVLNQEFGKKINQQASRCMDCGVPFCHNGCPIGNIIPEFNDAVYRDSWEEAWNILSSTNNFPEFTGRVCPAPCETACVLGINQDPITICNIEKTIVERAYQEGYAKPKTPRSRTGKTVAIIGSGPAGLAAAEQLNAAGHSVTVFERDEKVGGLLRFGIPDFKLGMDVIDRKINLMEQAGVKFVVNAHIGVDINAQQLRQEFDAVLLTGGSTVPRDLSIPGRDLKGVYFAMQFLAQNNRRANGMDLKGEEIHAKGKHVVVIGGGDTGSDCVGTSNRHGAASITQVEIMPIPPQKRPVNMPWPQYPMILRTSTSHEEGCERHWNILTKEFIGNEQGEVTGLRIADIVWKDAAPGERPSFDEVVGSERVIPCDMAFLAMGFLHPEPHGVLAQLGIKLDERGNVATQDFATNQKGVFAAGDMRTGQSLVVRCINEGRECARAVDTFLMGNTHLEAKADSLMLSAEGHHHHHH | soluble
18 | MIGRVFRIFREKGGILKALGLWEWYENLPHKYQKKVKHYYSLKTIKSINFPYKAKHFDTGEVENVLYTKRTFLGTIAQTALLEGDLEFAEWLYNEALKMEGSPYEAHLILNDLVLLAQKQRDLEKVKKYVLQDVELYPEYKEELKSRWGGTLPQIMAFEIYVYLLEREGKIKEALELVEWIKKEGITYPYYDQVKERLLQKLK | not soluble
19 | MGQVSAASTILINAEPTATLDALADYETVRPKILSPHYSEYQVLEGGKGRGTVAKWRLQATQSRVRDVQVNVDVAGHTVIEKDMNSSMVTNWTVAPAGPGSSVTVKTTWTGAGGVKGFFEKTFAPLGLKKIQAEVLSNLKTELEGDA | soluble
20 | MQVDADLRPILGPQLVRLDPMRVKQLQDPIVYEAIDNLAKLSAHCLQLRTPLTTCEKLINSDSTLYLSWKYDEEEKVSRLMGFAKVGRKKLFLYDSQMQTYEGEILCLLDFYVHFSCQRQGVGQQILDYMFSQEHTEPYQLALDNPSVTLLGFMSQKYGLIKPVWQNTNFVVFEELFLALSAENGIEKPPPDGWRRPMTPRRLGTGMTDTRWLQHAVSGHQSKGNAMAAPVDADMTPQGALSNRAHQAKARKAHILSSKPLW | soluble
